What was measured:
[1] = molecular target: CD38 on Daudi target cells (UniProt P28907); test: cell-based or functional assay
[2] = molecular target: His-tagged human CD38 (ACRO Biosystems CD8-H5224) (human) (UniProt P28907); test: SPR (second run), His-tagged CD38
[3] = molecular target: His-tagged human CD38 (ACRO Biosystems cat #CD8-H5224) (human) (UniProt P28907); test: SPR (Carterra LSA), His-CD38 analyte
[4] = molecular target: His-tagged human CD38 (ACRO Biosystems cat #CD8-H5224) (human) (UniProt P28907); test: SPR (Carterra LSA), antibody captured by anti-human Fc, His-tagged CD38 injected

Substance	ADCC EC50 [1]	Lowest Remaining Target % [1]	Max RLU [1]	PBMC ADCC EC50 [1]	Kd [2]	Kd [3]	Kd [4]
Daratumumab (benchmark) (antibody)	68.2 ng/mL	57%	2.47e+06 RLU	0.0983 ng/mL			
Isa Benchmark (antibody)	12.3 ng/mL		3.16e+06 RLU	0.0406 ng/mL	5.8 nM	2.69 nM	5.8 nM
Dara Benchmark (antibody)					37.1 nM		

— patent US20220306762A1
